Assay: yeast display, Sf9 membrane polyspecificity reagent, FACS + sequencing; frameworks hold sequencing errors
Procedure, shortened: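 Genes from sorted yeast were amplified by colony PCR, read by MiSeq 2 × 250 sequencing and filtered on CDR length. These cells carried a synthetic nanobody library in Saccharomyces cerevisiae BJ5465 and were sorted by FACS into low and high (top ~1%) gates on anti-HA and streptavidin fluorescence. Polyreactivity is labelled according to the gate of origin.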

Row | Sequence | polyreactivity (PSR sort gate)
1 | QVQLVESGGGLVQAGGSLRLICAASGRTFQYYAMGWYRQARGKERELVAAISWSGGSTYYADSVKGRFTISRDNAKNTVYLQMNSLKAEDNAVYYFAASFRGQIVGYWGQGTQVTVSS | high polyreactivity
2 | QVQLVESGGGLVQAGGSLRLSCAASGRIFIEYAMGWYRQAPGKERELVATINSSGGRTYYADSVKGRFTISRDNAKNTVYLQMHSLKPEDTAVYYCNADVGLLYTETYEYDYWGQGTQVTVSS | low polyreactivity
3 | QVQLVESGGGLVQAGGSLRLSCASSGSIFSYNAMGWYRQAPGKERELVAAITRSGGSTYYADSVKGRFTISRDNAKNTVYLQMNSLKPEDTAVYYCAVYLPYSQRYVHYYYWGQGTQVTVSS | high polyreactivity
4 | QVQLVESGGGLVHAGGSLRLSCASSGSALFWNAMGWYRQAPGKERELVATITNSGGSTYYADSVKGRFTISRDNAKNTVYLQMNSLKPEDTAVYYCNADESAYWKLRHGLGSDSWGQGTQVTVSS | low polyreactivity
5 | QLQLVESGGGLVQAGGSLRLSCAPSGSIFYYSAMGWSRQAPGKESEFVAAITRNGGSTYYADSVKGRFTISRDNAKNTVYLQMNSLKPVATAVFYCNAVRVRVTSHRIRQLDYGYWGQGTQVTVSS | low polyreactivity
6 | QVQLVESGGGLVQAGGSLRLSCAASGSIFTYYAMGWYRQAPGKERELVAAISYSGGTTYYADSVKGRFTISRDNAKNTVYLQMYSLKPEDTAVYYCNVDADYESEWLSVGYDYWGQGTQVTVSS | low polyreactivity
7 | QVQLVESGGGLVQAGGSLRLSCAASGRTFSVYVMGWYRQAPGKERELVAAISSSGGRTYYADSVKGRFTISRDNAKNTVYLQMNSLKPEDTAVYYCAAETIVFYVEYNYWGQGTQVTVSS | low polyreactivity
8 | QVQLVESGGGLVQAGGSLRLSCDASGITVAGYAMGWYRHAPGKEWELVAAISRGGSTYYADSVKGRFTISRDNAKNTVYLQMNSLKPEDTAVYYCNTDDQQGYFTYTGWNYNYWGQGTQVSVSS | high polyreactivity
9 | QVQLVESGGGLVQAGGSLRLSCAASGRTFAGNAMGWYRQAPGKERELVAAIRRTGGRTYYADSVKGRFTISRDNAKNTVYLQMNSLKPEETAVYYCNAVNKPYTREYGYDYWGQGTQVTGSS | high polyreactivity
10 | QVQLQESGGGLVQAGGSLRLRCAASGTISDRAGMGWYRQAPAKNAIVATIDRGTNTNYADSVKGRFTISRDNAKNTVYLQMNSLKPEDTAVYNCAADGRYYIYLDYWGQGTQVTVSS | low polyreactivity
11 | QVQLVESGGGLVQAGGSLRLSCAASGSSFSSYAMGRYRQAPAKERELVASNNIGGSTNYADSVKGRFTISRDNAKITVYLHMNSLKPEDTAVYSCNAVGYNVGGEGDYWGQGTQVTVSS | high polyreactivity
12 | QVQHVESGGGLVQAGGSLRISCAASGFISTGNAMGWSRQAPGKERELVAAITTGGSTYYADSVKGRFTISRDNAKNTVYLQMNSLKPEDTAVYYCNAVYVWWDGWGLYYWGQGTQGTVSS | low polyreactivity
13 | QVQLVESGGGLVQAGGSLRLSCAASGIIFAQYTMGWYRQAPGKERELVAAINRNGGSTYYADSVKGRFTISRDNAKNTVYLQMNSLKPEDNAVYYCIADALGFRFDYWGQGTQVTVSS | low polyreactivity
14 | QVQLVESGGGLVQAGGSLRLSCAASVSTFYSYVMGWSRQAPGKETELVAAITYSGGRTYYADSVKGRFTISRDNAKNTVYLQMNSLKPEDTAVYYCAKRVFNYQRYDYWGQGTQVTVSS | high polyreactivity
15 | QVQLEESGGGLVQAGGSLRLSCAASGSTFSRYAMGWYRQAPGKERELVAAISSSGGGTYYADSVKGRFTISRDNAKNTVYLQMNSLKPEDTAVYYCAAKRVHGATGYWGQGTQVTVSS | high polyreactivity
16 | QVQLVESGGGLVQAGGSLRLSCAASGGTFSTYAMGWYRQAPGKERELVAAISYSTGNTYYADSVKGRFTISRDNAKNTVYFQMNSLKPEDTAVYYCATLGGSQRGLGSFTRKYDYWGQGTQVTVSS | low polyreactivity

Row | Sequence | polyreactivity (PSR sort gate)
17 | QVQLVESGGGLVQAGGSLRLSCAASGRIFMNYDMGWYRQPPGKERELVADISISGSTDYADSVKGRFTISRDNAKNTVYLQMNSLKPEDTAVYYCATSFYVSDYYVPYEMGYWGQGTQVTVSS | low polyreactivity
18 | QVQLVESGGGLVQAGGSLRLSCAASGFTFWRNTMGWYRQAPGKEREFVAGISGSGGSTYYADSVKGRFTISRDNAKNTVYLQMNSLKPEDTAVYYCAAVYRFSRTFYTPGYDYWGQGTQVTVSS | high polyreactivity
19 | QVQHVESGGALVQAGGSLRLSCAASGITFDYYVMGWYRTAPGKERELVAGISSGGSTYYADSVKGRFTISRDNAKNTVYLQMNSLKPEDTAVYYCNARRRRLVSVGYYYNYDYWGQGTQVTVSS | high polyreactivity
20 | QVQLVESGGGLVQAGGSIRLSCAASGRTFSAYAMGWYRQEPGKVRELVARITSVDSTNYADSVKGRFTISRDNAKNTVYLQMNSLKPEDTAVYYSNATFGYPLVDYDDYWGQGTQVTVSS | low polyreactivity
21 | QFQLVESGGGLVQAGGSLRLSCAASGSIFELNAKGLYRTAPGKERELVAAITSSGSSTYYADSVKGRFTISRDNAKNTVYLQMNRLKPEDTAVYYCFRPHDYWGQGTQVTESS | low polyreactivity
22 | QVQLVESGGGLVQAGGSLRLSCAASGSTFWVNARGWYRQAPGKERELVAAIRRGGSTKYADSVKGRFTISRDNAKTTVYLQMNSLKPEDTAVYYCAADSYRTPAIYDYWGQGTQVTVSS | high polyreactivity
23 | QVQLVESGGGLVQAGGSLRLSWAASGGTFVPYAMGWYRQAPGTERELVARISKRGGTTYYADSVKGRFTISRDNAKYTVYLQMNSLKPEDTAVYYCAAVLPARGYYWGQGTQVTVSS | high polyreactivity
24 | QVQLVESGGGLVQAGGSLRLSCAASGRIFVINAMGWYRQAPGKEREFVAGITSSGNTNYADSVKGRFTISRDNAKNTVYLQMNSLKPEDTAVYYCNAQVYLTWLTYWLYYPPNDYWGQGTQVTVSS | low polyreactivity
25 | QVQLVESGGGLVQAGGSLRLSCAASGFIFTRNAMGWYRQAPGKERELVATISRSGSSTSYADSVKGRFTISRDNAKNTVYLQMNRLKPEDTAVYYCAATYIYRHSVISRYDYWGQGTQVTVSS | high polyreactivity
26 | QVQLVESGGGLVQAGGSLRLSCAASGSTFAANAMGWYRQAPGKERELVAAITSSGGSTYYADSVKGRFTISRDNAKNTVYLQLNSLKPEVTAVYYCNKDIERYVRIYDSWGQGTQVTVSS | low polyreactivity
27 | QVQLVESGGGLVQAGGSLRLSCAASGRIFSPYTMGWYRQAPGKERELVAAINERGTSTYYADTVKGRFSISRDNAKNTVYLQKNSLKPEDTAVYYCAARVRQRRYGTTSGGYDYWGQGTQVTVSS | high polyreactivity
28 | QVQLVESGGGLVQAGGSLRFSCAASGFIFSAYAMGWYRPAPGKERELVAAITWNGGSTYYADSVKGRFTISRDNAKNTVYLQMNSLKPEDTAVYYCNAVIKQHYIKYSYWGQGTQVTVSS | high polyreactivity
29 | QVQLVESGGGLVQAGGSLRLSCAASGLILYRYAMGWYRQAPGKERELVAAITTSGSSTFYADSVKGRFTISRDNAKNTVYLQMNSLKPEDTAVYYCAATRPRYGIYWYDYWGQGTQVTVSS | high polyreactivity
30 | QVPLVESGGGLVQAGGSLRLSCAASGLIFTGYAMGWYRQAPGKEREVVAAITSAGSTNYADSVKGRFTISRDNAKNTVYLQMNSLKPEDTAVYYCGASRTTTFSWYYLYYLVSKYYYWGQGTQVTVSS | low polyreactivity
31 | QVQLVESGGGLVQAGGSLRLSCAASGFIFSLYAMGWYRQAPGKERELVAAITRGGSTKYADSVKGRFTISRDNAKNTVYLQMNSLKPEDTAVYYCAARYNGKLNWGQGTQVTVSS | high polyreactivity

Reference: the nanobody polyreactivity screen of Harvey et al. (2022)
